Test results from patent publication US20230132049A1 (Genmab, published 2023).

Assays:
complement protein C1q = target: T1, complement protein C1q (human, UniProt P02745 23-245; P02746 28-253; P02747 29-245); assay: flow cytometry with FITC anti-C1q: C1q from 20% human serum on activated human CD8+ T cells incubated with the antibody
T1 construct: Native C1q in 20% human serum
Protocol: Activated CD8⁺ T cells were seeded in a round-bottom 96-well plate (30,000 cells/well), pelleted, and resuspended in 30 μL assay medium (RPMI-1640 with 25 mM HEPES and L-glutamine, supplemented with 0.1% [w/v] bovine serum albumin fraction V (BSA; Roche, cat. no. 10735086001) and penicillin/streptomycin).
Human serum (20 μL/well; Sanquin, lot 20L15-02), as a source of C1q, was added to a final concentration of 20%. Cells were incubated on ice for 45 min, followed by two washes with cold GMB FACS buffer and incubation with 50 μL fluorescein isothiocyanate (FITC)-conjugated rabbit anti-human C1q (final concentration of 20 μg/mL (DAKO, cat no. F0254); diluted 1:75 in GMB FACS buffer) in the presence or absence of allophycocyanin-conjugated mouse-anti-CD8 (BD Biosciences, cat. no. 555369; diluted 1:50 in GMB FACS buffer) in the dark at 4° C. for 30 min. […] C1q binding to viable cells (as identified by DAPI exclusion) was analyzed by flow cytometry on an iQue3 Screener (Intellicyt Corporation). Data were analyzed using iQue software (Intellicyt Corporation, ForeCyt® Enterprise Client Edition 6.2 [R3], Version 6.2.652).

human CD30 [1] = target: T2, human CD30 (human, UniProt P28908 19-595); assay: cell-based or functional assay
T2 sequence: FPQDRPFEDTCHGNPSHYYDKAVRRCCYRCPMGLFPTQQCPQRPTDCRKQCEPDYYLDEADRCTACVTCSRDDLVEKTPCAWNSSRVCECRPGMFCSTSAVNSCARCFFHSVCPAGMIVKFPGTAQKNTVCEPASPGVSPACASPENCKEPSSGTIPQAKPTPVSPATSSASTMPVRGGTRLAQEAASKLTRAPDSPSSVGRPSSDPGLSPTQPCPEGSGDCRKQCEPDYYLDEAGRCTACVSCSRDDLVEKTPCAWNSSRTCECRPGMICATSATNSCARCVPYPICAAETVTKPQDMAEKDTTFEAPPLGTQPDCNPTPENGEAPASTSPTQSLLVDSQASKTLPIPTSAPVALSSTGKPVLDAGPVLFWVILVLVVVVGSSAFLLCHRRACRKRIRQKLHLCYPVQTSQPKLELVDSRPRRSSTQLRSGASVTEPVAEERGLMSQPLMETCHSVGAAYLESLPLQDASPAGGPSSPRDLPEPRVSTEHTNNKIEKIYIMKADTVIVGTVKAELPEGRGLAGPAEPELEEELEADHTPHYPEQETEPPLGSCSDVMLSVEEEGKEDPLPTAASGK

human CD30 [2] = target: T2, human CD30; assay: cell-based or functional assay; remark: listed apart in the source
human CD30 [3] = target: T2, human CD30; assay: flow cytometry on HEK293 cells transfected with human CD30

T1 sequence (P02745 23-245 limits assumed, chain 1 of 3): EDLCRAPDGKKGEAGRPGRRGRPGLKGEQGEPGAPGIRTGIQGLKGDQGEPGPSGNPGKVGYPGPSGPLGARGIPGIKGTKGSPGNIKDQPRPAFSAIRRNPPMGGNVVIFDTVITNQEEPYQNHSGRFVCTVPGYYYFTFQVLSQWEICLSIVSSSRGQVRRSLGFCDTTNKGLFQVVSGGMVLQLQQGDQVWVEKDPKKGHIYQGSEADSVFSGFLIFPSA
T1 sequence (P02746 28-253 limits assumed, chain 2 of 3): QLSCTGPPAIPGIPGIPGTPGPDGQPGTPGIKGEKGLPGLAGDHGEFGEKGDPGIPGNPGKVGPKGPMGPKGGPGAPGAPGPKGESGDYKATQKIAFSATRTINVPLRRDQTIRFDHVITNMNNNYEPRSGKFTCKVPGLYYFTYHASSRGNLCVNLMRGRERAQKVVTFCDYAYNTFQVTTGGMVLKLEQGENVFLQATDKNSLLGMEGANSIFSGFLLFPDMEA
T1 sequence (P02747 29-245 limits assumed, chain 3 of 3): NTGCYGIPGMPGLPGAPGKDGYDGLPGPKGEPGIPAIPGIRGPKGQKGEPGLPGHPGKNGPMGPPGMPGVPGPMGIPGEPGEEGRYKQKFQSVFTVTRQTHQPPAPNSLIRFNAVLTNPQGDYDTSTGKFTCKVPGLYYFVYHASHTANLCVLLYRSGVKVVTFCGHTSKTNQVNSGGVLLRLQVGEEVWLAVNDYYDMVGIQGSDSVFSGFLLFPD

binding result (complement protein C1q): no binding (tested: 30 µg/mL) | EC50 (read off the curve) (human CD30 [3]): ~0.09 µg/mL
B1: bsG1-huCD3-FEAL×CD30-MDX060-FERR (bispecific antibody, human IgG1, kappa, lambda)
heavy 1: not shown
light 1: not shown
heavy 2: QVQLQQWGAGLLKPSETLSLTCAVYGGSFSAYYWSWIRQPPGKGLEWIGDINHGGGTNYNPSLKSRVTISVDTSKNQFSLKLNSVTAADTAVYYCASLTAYWGQGSLVTVSSASTKGPSVFPLAPSSKSTSGGTAALGCLVKDYFPEPVTVSWNSGALTSGVHTFPAVLQSSGLYSLSSVVTVPSSSLGTQTYICNVNHKPSNTKVDKRVEPKSCDKTHTCPPCPAPEFERGPSVFLFPPKPKDTLMISRTPEVTCVVVDVSHEDPEVKFNWYVDGVEVHNAKTKPREEQYNSTYRVVSVLTVLHQDWLNGKEYKCKVSNKALPAPIEKTISKAKGQPREPQVYTLPPSREEMTKNQVSLTCLVKGFYPSDIAVEWESNGQPENNYKTTPPVLDSDGSFFLYSRLTVDKSRWQQGNVFSCSVMHEALHNHYTQKSLSLSPG
light 2: DIQMTQSPTSLSASVGDRVTITCRASQGISSWLTWYQQKPEKAPKSLIYAASSLQSGVPSRFSGSGSGTDFTLTISSLQPEDFATYYCQQYDSYPITFGQGTRLEIKRTVAAPSVFIFPPSDEQLKSGTASVVCLLNNFYPREAKVQWKVDNALQSGNSQESVTEQDSKDSTYSLSSTLTLSKADYEKHKVYACEVTHQGLSSPVTKSFNRGEC
notes: one arm of each; also called bsG1-huCD3×CD30-MDX060
cytotoxicity IC50 (µg/mL) average, Karpas-299 cells (human CD30 [1]): 0.029 µg/mL | cytotoxicity maximum lysis (%) average, Karpas-299 cells (human CD30 [1]): 52.3% | Cytotoxicity, Average IC50 (µg/mL), KI-JK cells (human CD30 [2]): 0.0015 µg/mL | Cytotoxicity, Average IC50 (µg/mL), L-428 cells (human CD30 [2]): 0.002 µg/mL
